Biological target: Gal4-SNAP-VP16 labeled with SNAP-Surface-649 (S. cerevisiae | herpes simplex virus) (UniProt P04386)
Assay: colocalization single-molecule spectroscopy

Mediator complex with Med7-HA-SNAP labeled with SNAP-Surface-549 (from UniProt Q08278 1-222)
duration of individual binding events (at 10 nM Gal4-VP16^649): 1 s
